{"source": "patent US20140017242A1", "about": "“ANTI-BRADYKININ B2 RECEPTOR (BKB2R) MONOCLONAL ANTIBODY” (Diamedica, Inc., priority 2010, published 2014)", "molecules": {"B1": {"name": "chimeric/humanized anti-BKB2R antibody L2/HC (antibody, human IgG2, V domains shown)", "VH": "EVKLEESGGGLVQPGGSMKLSCVVSGFTFSDYWMSWVRHSPEMGLEWVAEIRLKSDNYATHYAESVKGRFTISRDDSKSRLYLQINSLRGEDTGIYYCTRDYYAMEYWGQGTSVTVSS", "VL": "DIVMTQSPLSLPVTPGEPASISCRSSQTIVHSNGKTYLEWYLQKPGQSPQLLIYKVSNRFSGVPDRFSGSGSGTEFTLKISRVEAEDVGVYYCFQASHVPYTFGQGTKLEIKR", "notes": "not shown: human IgG2 constant region"}, "B2": {"name": "H38/L39: humanized anti-BKB2R mAb, heavy chain H38 (SEQ ID NO:6), light chain L39 (SEQ ID NO:12) (antibody, V domains shown)", "VH": "EVQLLESGGGLVQPGGSLKLSCAVSGFTFSDYWMSWVRQAPGKGLEWVSEIRLKSDNYATHYADSVKGRFTISRDDSKNTLYLQMNSLRAEDTAVYYCTRDYYAMEYWGQGTLVTVSS", "VL": "DVVMTQTPLSLSVTPGQPASISCKSSQTIVHSNGKTYLEWYLQKPGQSPQLLIYKVSNRFSGVPDRFSGSGSGTDFTLKISRVEAEDVGVYYCFQASHVPYTFGQGTKLEIK", "modifications": "Humanized H38 Heavy Chain Variable Region VH; Humanized L39 Light Chain Region VL"}}, "key": {"ZDF fa/fa rats [1]": {"system": "ZDF fa/fa rats", "assay": "21-day ZDF fa/fa study: oral glucose tolerance test (blood glucose, plasma insulin)", "format": "in vivo, rat", "conditions": "10 mg/kg p.o. 1×/daily, day 21", "experimental": "(§1) Animals. Male ZDF fa/fa rats were obtained from CRL (Kingston, N.Y.). Upon arrival, rats were seven weeks of age. The rats were housed individually per cage in a room with a photo cycle of 12 hours of light and 12 hours of dark and an ambient temperature of 70-72° F. and fed on regular rodent diet and water ad libitum. At the age of eleven weeks, rats were divided into six groups (Table 5) of eight rats per group based on fasting blood glucose levels. A sub-group of four rats per group was maintained in parallel to the main groups and was dosed similarly for twenty-one days for a hyperinsulinemic-euglycemic clamp study. […]\n(§2) An oral glucose tolerance test (OGTT) was performed on Day 0, 7, 14 and 21 for each group of the study. Plasma samples were collected at each time point during OGTT to also measure insulin levels. Body weight, food and water intake were measured twice a week. Blood pressure and heart rates were monitored on Day 0, 7, 14 and 21 using a non-invasive tail cuff method (with five readings per rat taken and then averaged). Fasting serum samples were collected on Day 0, 7, 14 and 21 before OGTT for determination of triglyceride and total cholesterol level. Urine samples were collected on Day 7 and 14 for the determination of glycosuria. Glycated (Glycosylated) hemoglobin (HbA1c) was measured at the end of the study. Assay kits for these studies were as presented in Table 6, and were used according to the suppliers' instructions.\nOGTTs were performed on Day 0, 7, 14 and Day 21. Rats were fasted overnight and fasted blood glucose levels were measured (t=0 min), and then each rat was given a single 1.5 ml dose of glucose solution (2 g/kg body weight of D-(+)-glucose (G7528, Sigma) solubilized in deionized water) administered by oral gavage. […] At each time point of an OGGT approximately 50-60 μl of blood were collected and processed for plasma to measure insulin levels.\nPlasma Collection. On days 0, 7, 14 and 21 during an OGTT test, blood samples were collected from the rats at each time point (0, 15, 30, 60, 90 and 120 minutes) into tubes containing lithium heparin (BD Biosciences, USA) by tail nip and kept on ice. The samples were then centrifuged at 4° C. for plasma separation and the plasma supernatants were transferred into 0.5 ml Eppendorf™ tubes by pipette and stored at −80° C. for the analysis of insulin levels."}, "ZDF fa/fa rats [2]": {"system": "ZDF fa/fa rats", "assay": "21-day ZDF fa/fa study: fasting blood glucose", "format": "in vivo, rat", "conditions": "10 mg/kg p.o. 1×/daily, day 21; baseline 116.5+/−25.8", "experimental": "as §1, §2\nFasting blood glucose levels were measured on Day 0, 7, 14 and 21.\n(§3) The mean change in fasting blood glucose (mg/dL), serum cholesterol (mg/dL) and systolic blood pressure (mm Hg) from baseline (Day 0) to Day 21 was compared between the high-dose (5F12G1, 0.2 mg/kg) and negative control (MG2b-57, 0.2 mg/kg) groups using an analysis of covariance to adjust for baseline levels. The mean HbA1c percentage in high-dose (5F12G1, 0.2 mg/kg) rats was compared to the mean HbA1c percentage for negative control (MG2b-57, 0.2 mg/kg) rats using an unequal-variance, independent two-sample t-test. A significance level of a=0.05 was used for all tests, and all analyses were conducted using SAS statistical software (vs. 9.2, Cary, N.C., U.S.A.)."}, "ZDF fa/fa rats [3]": {"system": "ZDF fa/fa rats", "assay": "21-day ZDF fa/fa study: serum total cholesterol and triglyceride", "format": "in vivo, rat", "conditions": "10 mg/kg p.o. 1×/daily, day 21", "experimental": "as §1, §2, §3"}, "ZDF fa/fa rats [4]": {"system": "ZDF fa/fa rats", "assay": "21-day ZDF fa/fa study: glycated hemoglobin HbA1c", "format": "in vivo, rat", "conditions": "10 mg/kg p.o. 1×/daily, day 21", "experimental": "as §1, §2\nThe mean change in fasting blood glucose (mg/dL), serum cholesterol (mg/dL) and systolic blood pressure (mm Hg) from baseline ([…]) and negative control (MG2b-57, 0.2 mg/kg) groups using an analysis of covariance to adjust for baseline levels. […] A significance level of a=0.05 was used for all tests, and all analyses were conducted using SAS statistical software (vs. 9.2, Cary, N.C., U.S.A.)."}, "ZDF fa/fa rats [5]": {"system": "ZDF fa/fa rats", "assay": "21-day ZDF fa/fa study: urinary glucose (glycosuria)", "format": "in vivo, rat", "conditions": "10 mg/kg p.o. 1×/daily, day 14"}, "[6]": {"biological_target": "T1, human BKB2R-derived epitope peptide (SEQ ID NO:73), PEG-biotin (human, also: PEG-biotin, site not given here)", "T1 construct": "also called immunogenic human BKB2R peptide fragment", "T1 peptide": "KEYSDEGHNVTAC", "assay": "BLI (Octet), peptide-PEG-biotin on streptavidin sensor, antibody 250 nM", "experimental": "(§4) For the Octet study, antibodies were analyzed by kinetic titration of the antibodies. Antibodies were prepared in kinetic buffer (0.001 M phosphate buffered saline (NaCl 0.0138 M; KCl-0.00027 M); pH 7.4, at 25° C., 0.1 mg/ml BSA, 0.002% Tween and 0.005% Sodium Azide) followed by 1:2 serial dilutions.\n(§5) Sensor Prep: Streptavidin biosensors (FortéBio Inc, Menlo Park, Calif.) were coated by incubation in a solution containing a peptide ([…]-PEG-biotin) (Biosyn, Lewisville, Tex.) at 50 μg/ml (300 seconds/1000 rpm shaking). 96 well half-volume plates were used for testing. 90 μl of sample was plated per well. Sensors were allowed to equilibrate to baseline in kinetic buffer (60 seconds/1000 rpm). The sensors were then placed into the various antibody dilutions to allow binding (association) to the probe for 500 seconds/1000 rpm, and measurements were taken. The sensors were then moved into kinetic buffer without antibody for dissociation (500 seconds/1000 rpm), and measurements were taken. Octet system software calculated kinetic constants for on rate/off rate/affinity.\n(§6) For test humanized monoclonal antibodies, the highest concentration used was 500 nM followed by 1:2 dilutions. Each concentration was tested twice. The HC and LC represented the mouse original 5F12G1 VH and VL sequences."}, "[7]": {"biological_target": "T1, human BKB2R-derived epitope peptide …", "assay": "BLI (Octet), peptide-PEG-biotin on streptavidin sensor, antibody 500 nM", "experimental": "as §4, §5, §6"}, "[8]": {"biological_target": "T2, human BKB2R-derived epitope peptide, SE ID NO:73 (Homo sapiens, UniProt P30411)", "T2 construct": "purchased Biosyn, Lewisville, Tex", "assay": "ForteBio Octet binding kinetics to the BKB2R epitope peptide", "experimental": "Proteins corresponding to all combinations of humanized or chimeric (5F12G1 VH and VL on human IgG2 backbone) antibodies were tested for binding to the human BKB2R-derived epitope peptide, SE ID NO:73.\nA ForteBio (Menlo Park, Calif., USA) Octet® platform was used to analyze the binding affinities and binding characteristics of the humanized monoclonal antibodies to the peptide epitope (SEQ ID NO:73) and compared to the original mouse monoclonal 5F12G1. This platform employed label-free technology for measuring biomolecular interactions by optical analysis of the interference pattern of white light reflected from two surfaces: a layer of immobilized protein on the biosensor tip, and an internal reference layer. Any change in the number of molecules bound to the biosensor tip caused a shift in the interference pattern that was measured in real-time. Binding specificity, and rates of association and dissociation were monitored.\nas §4, §5\n[…] […] Each concentration was tested twice. The HC and LC represented the mouse original 5F12G1 VH and VL sequences."}, "ZDF fa/fa rats [9]": {"system": "ZDF fa/fa rats", "assay": "Oral glucose tolerance test in ZDF fa/fa rats, humanized mAbs", "format": "in vivo, rat", "conditions": "0.2 mg/kg s.c.; order: H38/L39, H37/L38, L2/H2, H38/L38, H37/L37, H38/L38, H39/137 [sic], H39/L39, H37/L37, H39/L38, H37/L39, L1/H1", "from_the_text": "This example describes evaluation of mouse mAb 5F12G1 and its twelve humanized clones in Zucker Diabetic fatty (ZDF fa/fa) rats for effects on insulin sensitivity in animals. Zucker Diabetic Rats develop symptoms similar to type 2 diabetes and are genetically resistant to insulin. […] Therefore, the Zucker rat is a good model to test the ability of the monoclonal antibody to increase insulin sensitivity, especially in an OGTT.\nMale ZDF fa/fa rats were obtained from Charles River (Kingston, ON). Upon arrival, rats were ten weeks of age. The rats were housed individually per cage in a room with a photo cycle of 12 hours of light and 12 hours of dark and an ambient temperature of 70-72° F. and fed on regular rodent diet and water ad libitum. After seven days of acclimatization, rats were grouped into fourteen groups of three rats per group (Table 10).\nOral Glucose Tolerance Test. An oral glucose tolerance test (OGTT) was performed on overnight fasted (16 hours) rats. Rats received subcutaneously administered humanized mAbs, mouse mAb 5F12G1 (positive control) and PBS (vehicle control) at a dose of 0.2 mg/kg body weight, thirty minutes prior to glucose administration. D-Glucose was prepared in distilled water and administered orally at 2 g/kg body weight. Blood glucose levels were measured before administration of humanized mAbs, 5F12G1 or vehicle (t=−30 minutes) and just before glucose loading (0 minute), and at timepoints of 30, 60, 90 and 120 minutes, using Accu-chek™ glucose meter."}}, "note": "Where no end group is shown, it is not given here."}
{"molecule": "N[C@@H](CC(=O)N1CCn2c(nnc2C(F)(F)F)C1)Cc1cc(F)c(F)cc1F", "note": "[sitagliptin, reference compound]", "values": [{"measurement": "AUC of blood glucose during OGTT", "setting": "ZDF fa/fa rats [1]", "value": "53765.75 ± 2281.45 mg/dL (min)"}, {"measurement": "blood glucose level at 30 minutes of the OGTT", "setting": "ZDF fa/fa rats [1]", "value": 488, "unit": "mg/dL"}, {"measurement": "blood glucose level at the start of the OGTT", "setting": "ZDF fa/fa rats [1]", "value": 228, "unit": "mg/dL"}, {"measurement": "fasting insulin level", "setting": "ZDF fa/fa rats [1]", "value": "10 ± 3.5", "unit": "ng/mL"}, {"measurement": "insulin level at 15 minutes of the OGTT", "setting": "ZDF fa/fa rats [1]", "value": "15 ± 4", "unit": "ng/mL"}, {"measurement": "fasting blood glucose level", "setting": "ZDF fa/fa rats [2]", "value": "247 ± 14", "unit": "mg/dL"}, {"measurement": "serum cholesterol", "setting": "ZDF fa/fa rats [3]", "value": "170 ± 14", "unit": "mg/dL"}, {"measurement": "percent glycosylated hemoglobin A1c (HbA1c)", "setting": "ZDF fa/fa rats [4]", "value": "8.8+/−0.4%"}, {"measurement": "urine glucose level", "setting": "ZDF fa/fa rats [5]", "value": "elevated urine glucose"}]}
{"molecule": "B1", "values": [{"measurement": "Kd", "setting": "[6]", "value": 337, "unit": "nM"}, {"measurement": "Max Response", "setting": "[6]", "value": 0.204}, {"measurement": "koff", "setting": "[6]", "value": 0.732, "unit": "s⁻¹"}, {"measurement": "kon", "setting": "[6]", "value": "2.17e+06", "unit": "M⁻¹ s⁻¹"}, {"measurement": "Kd", "setting": "[7]", "value": 4530, "unit": "nM"}, {"measurement": "Max Response", "setting": "[7]", "value": 0.143}, {"measurement": "koff", "setting": "[7]", "value": 0.655, "unit": "s⁻¹"}, {"measurement": "kon", "setting": "[7]", "value": 145000, "unit": "M⁻¹ s⁻¹"}]}
{"molecule": "B2", "values": [{"measurement": "kdis", "setting": "[8]; Conc. 500 nM", "value": 106, "unit": "s⁻¹"}, {"measurement": "kon", "setting": "[8]; Conc. 500 nM", "value": "1.14e+09", "unit": "M⁻¹ s⁻¹"}, {"measurement": "binding compared with the original mouse monoclonal antibody", "setting": "[8]; Octet, epitope peptide", "value": "stronger binding (lower KD)"}, {"measurement": "order of effect on the decrease in AUC of blood glucose", "setting": "ZDF fa/fa rats [9]", "value": "higher"}]}
